Test results reported in patent US20190233493A1 (Sanofi, published 2019).
Values belong to the binder of their own block, whether it stands above or below them. *1 amine or outer side, *2 acyl side, *3 side chain or, on linkers, in order; H or OH if unused. Primed or numbered codes have the meaning given here. Side-chain parts run from the residue outwards. [ ]: non-standard residue; d: D form. The star is where a group is joined. TTDS(3) = O=C(CCC(=O)[*:2])NCCCOCCOCCOCCCN[*:1]; Lys(Me3) = C[N+](C)(C)CCCC[C@H](N)C(=O)O; Arg(Me2s) = CN=C(NC)NCCC[C@H](N)C(=O)O; γGlu = O=C(O)[C@H](CCC(=O)[*:2])N[*:1]; Arg(Me) = CNC(=N)NCCC[C@H](N)C(=O)O; Stearoyl = CCCCCCCCCCCCCCCCCC(=O)*; Palmitoyl = CCCCCCCCCCCCCCCC(=O)*; Cit = NC(=O)NCCC[C@H](N)C(=O)O; αMeK = C[C@](N)(CCCCN)C(=O)O; Nle = CCCC[C@H](N)C(=O)O; PEG2′ = PEG2 spacer unit; PEG2″ = not defined here; Aib = CC(C)(N)C(=O)O

Molecular target: T1, RXFP1 receptor (UniProt Q9HBX9 1-757, limits assumed)
T1 sequence (looked up): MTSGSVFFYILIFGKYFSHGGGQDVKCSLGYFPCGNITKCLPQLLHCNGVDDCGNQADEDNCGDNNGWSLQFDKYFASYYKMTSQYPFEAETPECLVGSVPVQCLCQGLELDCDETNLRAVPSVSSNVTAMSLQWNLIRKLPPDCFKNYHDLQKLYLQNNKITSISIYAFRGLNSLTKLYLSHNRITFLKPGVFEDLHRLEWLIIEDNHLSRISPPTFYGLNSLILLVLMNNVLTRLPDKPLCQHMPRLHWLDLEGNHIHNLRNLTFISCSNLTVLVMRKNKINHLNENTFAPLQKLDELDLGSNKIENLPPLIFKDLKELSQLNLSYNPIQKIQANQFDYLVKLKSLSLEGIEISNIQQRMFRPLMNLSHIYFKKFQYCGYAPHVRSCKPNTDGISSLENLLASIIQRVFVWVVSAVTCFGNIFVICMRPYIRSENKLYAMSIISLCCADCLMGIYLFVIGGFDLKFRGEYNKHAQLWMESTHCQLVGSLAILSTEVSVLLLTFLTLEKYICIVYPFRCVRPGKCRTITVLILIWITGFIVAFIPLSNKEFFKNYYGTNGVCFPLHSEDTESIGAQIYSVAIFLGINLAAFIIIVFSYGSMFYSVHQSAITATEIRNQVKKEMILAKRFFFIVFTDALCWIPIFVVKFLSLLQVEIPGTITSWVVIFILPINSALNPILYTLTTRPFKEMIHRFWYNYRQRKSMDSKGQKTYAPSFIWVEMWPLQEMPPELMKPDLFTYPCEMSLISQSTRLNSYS
Test: cell-based or functional assay

- EC50 (nM), OVCAR 5 cells (cAMP): 0.11 nM
- EMax, OVCAR 5 cells (cAMP): 87%
B1: peptide of SEQ ID NO: 149 (peptide)
peptide: Ac-LEGREKVRAK(Ac)I[Aib][Aib]EG[Nle]STFS[αMeK]RAK(Ac)[PEG2″][PEG2″][PEG2″][PEG2″][γGlu][γGlu][γGlu]K([γGlu-Palmitoyl])-NH2

- EC50 (nM), OVCAR 5 cells (cAMP): 0.04 nM
- EMax, OVCAR 5 cells (cAMP): 88%
B2: peptide of SEQ ID NO: 14 (peptide)
peptide: Ac-LEGREKVRAK(Ac)I[Aib][Aib]EG[Nle]STWS[Aib]RKK(Ac)[PEG2′][PEG2′][PEG2′]K([γGlu-γGlu-γGlu-Stearoyl])-NH2

- EC50 (nM), OVCAR 5 cells (cAMP): 0.07 nM
- EMax, OVCAR 5 cells (cAMP): 92%
B3: peptide of SEQ ID NO: 150 (peptide)
peptide: Ac-LEGREKVRAK(Ac)I[Aib][Aib]EG[Nle]STFS[αMeK]RAK(Ac)[PEG2″][PEG2″][PEG2″][PEG2″]K([γGlu-γGlu-γGlu-γGlu-Palmitoyl])-NH2

- EC50 (nM), OVCAR 5 cells (cAMP): 6.3 nM
- EMax, OVCAR 5 cells (cAMP): 100%
B4: peptide of SEQ ID NO: 134 (peptide)
peptide: Ac-LEGREKVRAK(Ac)I[Aib][Aib]EG[Nle]STWS[Aib]R[Lys(Me3)]K(Ac)K([PEG2′-PEG2′-PEG2′-γGlu-γGlu-γGlu-Stearoyl])-NH2

- EC50 (nM), OVCAR 5 cells (cAMP): 0.26 nM
- EMax, OVCAR 5 cells (cAMP): 92%
B5: peptide of SEQ ID NO: 131 (peptide)
peptide: Ac-LEGREKVRAK(Ac)I[Aib][Aib]EG[Nle]STWS[αMeK]RKK(Ac)[PEG2′][PEG2′][PEG2′][PEG2′]K([γGlu-γGlu-γGlu-γGlu-Palmitoyl])-NH2

- EC50 (nM), OVCAR 5 cells (cAMP): 0.4 nM
- EMax, OVCAR 5 cells (cAMP): 88%
B6: peptide of SEQ ID NO: 143 (peptide)
peptide: Ac-LEGREKVRAK(Ac)I[Aib][Aib]EG[Nle]STFS[αMeK]RKK(Ac)[PEG2′][PEG2′][PEG2′][PEG2′]K([γGlu-γGlu-γGlu-γGlu-Palmitoyl])-NH2

- EC50 (nM), OVCAR 5 cells (cAMP): 0.4 nM
- EMax, OVCAR 5 cells (cAMP): 99%
B7: peptide of SEQ ID NO: 145 (peptide)
peptide: Ac-LEGREKVRAK(Ac)I[Aib][Aib]EG[Nle]STFSXRKK(Ac)[PEG2′][PEG2′][PEG2′][PEG2′][γGlu][γGlu][γGlu]K([γGlu-Palmitoyl])-NH2
modifications: not fully specified (some residues); printed as Ac-L-E-G-R-E-K-V-R-A-K(Ac)-I-Aib-Aib-E-G-Nle-S-T-F-S-Mly-R-K-K(Ac)-PEG2-PEG2-PEG2-PEG2-gE-gE-gE-K(gE-Palm)-NH2

- EC50 (nM), OVCAR 5 cells (cAMP): 1.7 nM
- EMax, OVCAR 5 cells (cAMP): 87%
B8: peptide of SEQ ID NO: 132 (peptide)
peptide: Ac-LEGREKVRAK(Ac)I[Aib][Aib]EG[Nle]STWS[αMeK][Cit]AK(Ac)K([PEG2′-PEG2′-PEG2′-PEG2′-γGlu-γGlu-γGlu-Stearoyl])-NH2

- EC50 (nM), OVCAR 5 cells (cAMP): 0.16 nM
- EMax, OVCAR 5 cells (cAMP): 87%
B9: peptide of SEQ ID NO: 141 (peptide)
peptide: Ac-LEGREKVRAK(Ac)I[Aib][Aib]EG[Nle]STWS[αMeK][Arg(Me)][Lys(Me3)]K(Ac)K([PEG2′-PEG2′-PEG2′-PEG2′-γGlu-γGlu-γGlu-γGlu-Palmitoyl])-NH2

- EC50 (nM), OVCAR 5 cells (cAMP): 0.95 nM
- EMax, OVCAR 5 cells (cAMP): 97%
B10: peptide of SEQ ID NO: 135 (peptide)
peptide: Ac-LEGREKVRAK(Ac)I[Aib][Aib]EG[Nle]STWS[αMeK]RAK(Ac)K([PEG2′-PEG2′-PEG2′-PEG2′-γGlu-γGlu-γGlu-Stearoyl])-NH2

- EC50 (nM), OVCAR 5 cells (cAMP): 0.3 nM
- EMax, OVCAR 5 cells (cAMP): 92%
B11: peptide of SEQ ID NO: 139 (peptide)
peptide: Ac-LEGREKVRAK(Ac)I[Aib][Aib]EG[Nle]STFSXAAK(Ac)[PEG2′][PEG2′][PEG2′][PEG2′][γGlu][γGlu][γGlu]K([γGlu-Palmitoyl])-NH2
modifications: not fully specified (some residues); printed as Ac-L-E-G-R-E-K-V-R-A-K(Ac)-I-Aib-Aib-E-G-Nle-S-T-F-S-Mly-A-A-K(Ac)-PEG2-PEG2-PEG2-PEG2-gE-gE-gE-K(gE-Palm)-NH2

- EC50 (nM), OVCAR 5 cells (cAMP): 0.11 nM
- EMax, OVCAR 5 cells (cAMP): 94%
B12: peptide of SEQ ID NO: 148 (peptide)
peptide: Ac-LEGREKVRAK(Ac)I[Aib][Aib]EG[Nle]STWS[Aib][Arg(Me2s)]KK(Ac)K-NH2
modifications: not fully specified (residue 25); printed as Ac-L-E-G-R-E-K-V-R-A-K(Ac)-I-Aib-Aib-E-G-Nle-S-T-W-S-Aib-Rds-K-K(Ac)-K(PEG2-PEG2-PEG2-gE-gE-gE-Stea)-NH2

- EC50 (nM), OVCAR 5 cells (cAMP): 0.32 nM
- EMax, OVCAR 5 cells (cAMP): 92%
B13: peptide of SEQ ID NO: 15 (peptide)
peptide: Ac-LEGREKVRAK(Ac)I[Aib][Aib]EG[Nle]STWS[Aib]RKK[PEG2″][PEG2″][PEG2″][PEG2″]K([γGlu-γGlu-γGlu-γGlu-Stearoyl])-NH2

- EC50 (nM), OVCAR 5 cells (cAMP): 0.01 nM
- EMax, OVCAR 5 cells (cAMP): 83%
B14: peptide of SEQ ID NO: 133 (peptide)
peptide: Ac-LEGREKVRAK(Ac)I[Aib][Aib]EG[Nle]STWS[Aib][Arg(Me)]KK(Ac)K([PEG2′-PEG2′-PEG2′-γGlu-γGlu-γGlu-Stearoyl])-NH2

- EC50 (nM), OVCAR 5 cells (cAMP): 4.1 nM
- EMax, OVCAR 5 cells (cAMP): 94%
B15: peptide of SEQ ID NO: 144 (peptide)
peptide: Ac-LEGREKVRAK(Ac)I[Aib][Aib]EG[Nle]STFS[Aib]RKK(Ac)[PEG2′][PEG2′][PEG2′][PEG2′]K([γGlu-γGlu-γGlu-Palmitoyl])-NH2

- EC50 (nM), OVCAR 5 cells (cAMP): 0.4 nM
- EMax, OVCAR 5 cells (cAMP): 88%
B16: peptide of SEQ ID NO: 140 (peptide)
peptide: Ac-LEGREKVRAK(Ac)I[Aib][Aib]EG[Nle]STFS[αMeK]RKK(Ac)K([PEG2′-PEG2′-PEG2′-PEG2′-γGlu-γGlu-γGlu-γGlu-Palmitoyl])-NH2

- EC50 (nM), OVCAR 5 cells (cAMP): 0.03 nM
- EMax, OVCAR 5 cells (cAMP): 92%
B17: peptide of SEQ ID NO: 136 (peptide)
peptide: Ac-LEGREKVRAK(Ac)I[Aib][Aib]EG[Nle]STWSXRKK(Ac)[PEG2′][PEG2′][PEG2′][PEG2′][γGlu][γGlu][γGlu]K([γGlu-Palmitoyl])-NH2
modifications: not fully specified (some residues); printed as Ac-L-E-G-R-E-K-V-R-A-K(Ac)-I-Aib-Aib-E-G-Nle-S-T-W-S-Mly-R-K-K(Ac)-PEG2-PEG2-PEG2-PEG2-gE-gE-gE-K(gE-Palm)-NH2

- EC50 (nM), OVCAR 5 cells (cAMP): 0.3 nM
- EMax, OVCAR 5 cells (cAMP): 93%
B18: peptide of SEQ ID NO: 130 (peptide)
peptide: Ac-LEGREKVRAK(Ac)I[Aib][Aib]EG[Nle]STWS[Aib]RKK(Ac)K([PEG2′-PEG2′-PEG2′-PEG2′-γGlu-γGlu-γGlu-γGlu-Palmitoyl])-NH2

- EC50 (nM), OVCAR 5 cells (cAMP): 0.21 nM
- EMax, OVCAR 5 cells (cAMP): 92%
B19: peptide of SEQ ID NO: 137 (peptide)
peptide: Ac-LEGREKVRAK(Ac)I[Aib][Aib]EG[Nle]STWS[Aib][Arg(Me)][Lys(Me3)]K(Ac)K([PEG2′-PEG2′-PEG2′-γGlu-γGlu-γGlu-Stearoyl])-NH2

- EC50 (nM), OVCAR 5 cells (cAMP): 2.14 nM
- EMax, OVCAR 5 cells (cAMP): 86%
B20: peptide of SEQ ID NO: 147 (peptide)
peptide: Ac-LEGREKVRAK(Ac)I[Aib][Aib]EG[Nle]STFS[Aib]RKK(Ac)K([PEG2′-PEG2′-PEG2′-PEG2′-γGlu-γGlu-γGlu-γGlu-Palmitoyl])-NH2

- EC50 (nM), OVCAR 5 cells (cAMP): 0.02 nM
- EMax, OVCAR 5 cells (cAMP): 91%
B21: peptide of SEQ ID NO: 138 (peptide)
peptide: Ac-LEGREKVRAK(Ac)I[Aib][Aib]EG[Nle]STWS[αMeK][Arg(Me)][Lys(Me3)]K(Ac)K([PEG2′-PEG2′-PEG2′-γGlu-γGlu-γGlu-Stearoyl])-NH2

- EC50 (nM), OVCAR 5 cells (cAMP): 0.02 nM
- EMax, OVCAR 5 cells (cAMP): 89%
B22: peptide of SEQ ID NO: 146 (peptide)
peptide: Ac-LEGREKVRAK(Ac)I[Aib][Aib]EG[Nle]STFS[αMeK]RKK(Ac)[TTDS(3)][TTDS(3)][γGlu][γGlu][γGlu]K([γGlu-Palmitoyl])-NH2
SMILES: CCCCCCCCCCCCCCCC(=O)N[C@@H](CCC(=O)NCCCC[C@H](NC(=O)CC[C@H](NC(=O)CC[C@H](NC(=O)CC[C@H](NC(=O)CCC(=O)NCCCOCCOCCOCCCNC(=O)CCC(=O)NCCCOCCOCCOCCCNC(=O)[C@H](CCCCNC(C)=O)NC(=O)[C@H](CCCCN)NC(=O)[C@H](CCCNC(=N)N)NC(=O)[C@](C)(CCCCN)NC(=O)[C@H](CO)NC(=O)[C@H](Cc1ccccc1)NC(=O)[C@@H](NC(=O)[C@H](CO)NC(=O)[C@H](CCCC)NC(=O)CNC(=O)[C@H](CCC(=O)O)NC(=O)C(C)(C)NC(=O)C(C)(C)NC(=O)[C@@H](NC(=O)[C@H](CCCCNC(C)=O)NC(=O)[C@H](C)NC(=O)[C@H](CCCNC(=N)N)NC(=O)[C@@H](NC(=O)[C@H](CCCCN)NC(=O)[C@H](CCC(=O)O)NC(=O)[C@H](CCCNC(=N)N)NC(=O)CNC(=O)[C@H](CCC(=O)O)NC(=O)[C@H](CC(C)C)NC(C)=O)C(C)C)[C@@H](C)CC)[C@@H](C)O)C(=O)O)C(=O)O)C(=O)O)C(N)=O)C(=O)O
